Data: publication PMC10710061

B1: ZnF domain of Arabidopsis thaliana SPL5, residues 60 to 127 (domain or fragment)
chain: SRLCQVDRCTVNLTEAKQYYRRHRVCEVHAKASAATVAGVRQRFCQQCSRFHELPEFDEAKRSCRRRL

Tests used:
[1] = target: ZnF domain of Arabidopsis thaliana SPL5, residues 60 to 127 (Arabidopsis thaliana) (UniProt Q9S758); experiment: ITC; 200 μM SAP05 from the syringe into 20 μM SPL5^ZnF in the cell; 25 °C, 20 mM HEPES pH 7.5, 150 mM NaCl; one-site binding model
[2] = target: SAP05 D66E (purified, for ITC) (Aster Yellows phytoplasma strain Witches Broom (AYWB)); experiment: ITC; SPL5^ZnF from the syringe (250 μM for wild-type SAP05, 200 μM for the SAP05–Rpn10^vWA complex or SAP05 mutants) into 20 μM partner in the cell; 25 °C, 20 mM HEPES pH 7.5, 150 mM NaCl; one-site binding model
[3] = target: SAP05 H58A T60W (purified, for ITC) (Aster Yellows phytoplasma strain Witches Broom (AYWB)); experiment: as above
[4] = target: SAP05 of Aster Yellows phytoplasma strain Witches Broom (AYWB), residues 33 to 135 (Aster Yellows phytoplasma strain Witches Broom (AYWB)); experiment: as above
[5] = target: SAP05–Rpn10^vWA complex (Aster Yellows phytoplasma strain Witches Broom (AYWB) | Arabidopsis thaliana) (UniProt P55034); experiment: as above

| Molecule | Kd [1] | stoichiometry N [1] | Kd [2] | Kd [3] | Kd [4] | Kd [5] | stoichiometry N [5] |
| --- | --- | --- | --- | --- | --- | --- | --- |
| SAP05 of Aster Yellows phytoplasma strain Witches Broom (AYWB), residues 33 to 135 (natural protein) | 450 nM | 1 | – | – | – | – | – |
| B1 | – | – | 17700 nM | 3600 nM | 520 nM | 650 nM | 1 |
